The target of experiment [1] is Drosophila melanogaster photoreceptor retinol dehydrogenase (PDH) isoform C (Drosophila melanogaster). The experiment can be described thus: crystal structure.
For experiment [2], the target named is T1, PDH (photoreceptor retinol dehydrogenase, isoform C; PDHc) (Drosophila melanogaster, UniProt B7Z062).
T1 sequence (B7Z062 2-261): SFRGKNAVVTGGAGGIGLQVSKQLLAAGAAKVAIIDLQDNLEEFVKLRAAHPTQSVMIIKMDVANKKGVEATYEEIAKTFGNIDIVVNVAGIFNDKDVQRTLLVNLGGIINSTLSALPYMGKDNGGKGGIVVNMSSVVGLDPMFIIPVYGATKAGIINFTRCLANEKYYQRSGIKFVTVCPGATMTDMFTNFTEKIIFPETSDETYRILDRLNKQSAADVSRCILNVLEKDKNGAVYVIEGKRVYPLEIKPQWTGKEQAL
As to the kind of experiment: differential scanning fluorimetry. In kind it is binding. (Differential scanning fluorimetry follows unfolding on heating by fluorescence.)

Regarding “Drosophila melanogaster photoreceptor retinol dehydrogenase (PDH) isoform C (enzyme)”, the stoichiometry N in experiment [1] worked out at 2.

`NC(=O)c1ccc[n+]([C@@H]2O[C@H](COP(=O)([O-])OP(=O)(O)OC[C@H]3O[C@@H](n4cnc5c(N)ncnc54)[C@H](O)[C@@H]3O)[C@@H](O)[C@H]2O)c1` [NAD^+] returned a Kd in experiment [2] of 170 ± 30 µM.

Broadly, the stoichiometry N is the number of molecules, sites or subunits per partner or assembly. For orientation: Kd means the concentration at which binding is half-saturated. Low readings indicate a tighter complex, high ones a looser complex.

The values above are taken from publication PMC5154250 (Biochemistry, 2016).
